Our source for the protein stability index values is the supplement of paper PMC10567573.

A short description of this data set: protein stability index of a GFP-peptide fusion (GPS, HEK-293T) (PSI 1-6); higher = more stable.
Where [1] appears, read: treatment: DMSO, c terminus: a fixed tail appended.
Where [2] appears, read: treatment: MLN4924 1 uM, 8 h, c terminus: a fixed tail appended.
Setting [3] is: treatment: DMSO, c terminus: native.
Where [4] appears, read: treatment: MLN4924 1 uM, 8 h, c terminus: native.

± gives the standard deviation.
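Further: 24-mer peptide tiles fused after GFP, lentivirally expressed, FACS-sorted into six equal bins by GFP/DsRed ratio, decoded by Illumina sequencing, PSI is the read-weighted mean bin number.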

In the case of WKSHLKKVQKPLLQAPFLPPKAPP [RHOBTB1], the protein stability index under setting [1] is 3.21 ± 0.17 and the protein stability index under setting [2] was 3.37 ± 0.34.
In the case of WLLLLTRGLVGVGEASYSTIAPTL [SPNS1], the protein stability index is, setting by setting: under setting [1], 2.67 ± 0.44; under setting [2], 2.83 ± 0.32.
WNVLMWTSLFLGNGVLLCFYSQEW [SOAT1]: the protein stability index under setting [1] is 2.99 ± 0.93 and the protein stability index under setting [2] came to 2.7 ± 0.38.
The like results for WPPSFLSEFRALQFSLMLCAFVGA [SPNS1] were, in that order, 3.23 ± 0.53 and 2.85 ± 0.64.
As for WQLYYSKKLLDSWFTSTQEKKHK [JAGN1], the protein stability index was found to be 2.28 ± 0.49 under setting [3] and 2.7 ± 0.29 under setting [4].
Take WRWTGFNFGFDLLVTYTNRYIIFK [GMCL1]: the protein stability index by setting is: under setting [1], 2.63 ± 0.58; under setting [2], 3.02 ± 0.45.
Consider WTALHFAAQNGDESSTRLLLEKNA [RIPK4], for which the protein stability index was determined as 3.4 ± 0.08 under setting [1] and 3.28 ± 0.33 under setting [2].
The like results for WVFHHYVSTFLSGVMLTWPDGLMY [TMEM120A] were, in that order, 3.14 ± 0.17 and 3.11 ± 0.24.
As for WYSRLQACQWGGNFLAFSVRRVS, the protein stability index under setting [3] amounted to 3.17 ± 0.58 and the protein stability index under setting [4] was 2.15 ± 0.83.
As to YDIEVNTRRAQADLAYQLQVAKTK [FLOT1], the protein stability index under setting [1] came out at 4.35 ± 0.18 and the protein stability index under setting [2] is 4.33 ± 0.19.
In the case of YDPKTNQWSSDVAPTSTCRTSVGV [KLHL20], the protein stability index runs as follows: under setting [1], 2.86 ± 0.44; under setting [2], 3.04 ± 0.19.
Regarding YEGGHIKGAVNLHMEEEVEDFLLK [CDC25A], the protein stability index is, setting by setting: under setting [1], 4.6 ± 0.42; under setting [2], 4.51 ± 0.076.
The like results for YGRSWESYSSCGDFHYCDREHVCR [RBMY1A1] were, in that order, 2.65 ± 0.72 and 2.66 ± 0.35.
The like results for YISPELCEGKPYNQKSDIWALGCV [NEK8] were, in that order, 2.19 ± 0.41 and 2.01 ± 0.19.
The like results for YLRSKLCSLYENDCIFDKFECAWN [PPP2R2C] were, in that order, 2.81 ± 0.57 and 2.61 ± 0.66.
As to YNSEILEEAISVVMSGKMSVSKAQ [LCOR], the protein stability index was determined as 2.96 ± 0.17 under setting [1] and 3.03 ± 0.41 under setting [2].
YPCLEKPRIWSLAHTATASAVEGA [IRX6] came in with a protein stability index under setting [1] of 2.8 ± 0.41 and a protein stability index under setting [2] of 2.98 ± 0.49.
The like results for YPTCGIGYPVSSAFAFQNTFPHSI [SASS6] were, in that order, 2.66 ± 0.55 and 2.49 ± 0.41.
The like results for YQELLGLSFEQMTDAHVWNKSVTL [NLN] were, in that order, 2.37 ± 0.093 and 2.3 ± 0.28.
The like results for YSLFVGLFLFGYKFSGLYILSFTV [SLC35F2] were, in that order, 3.24 ± 0.39 and 3.07 ± 0.39.
As for YSLRILIGDPPHHDHHDEFCLMP [BEX5], the protein stability index was determined as 2.62 ± 0.4 under setting [3] and 2.03 ± 0.35 under setting [4].
Take YSNTDANILFYVVGLRNTLTRIRK [GLT8D2]: the protein stability index was 2.3 ± 0.61 under setting [1] and 2.45 ± 0.3 under setting [2].
The like results for YTGEIKISENLDYEETGFYEIEIQ [PCDHGA10] were, in that order, 2.97 ± 0.18 and 2.87 ± 0.46.
YTSELYPTVIRNVGLGTCSMFSRV [SLC22A15]: the protein stability index is 2.13 ± 0.82 under setting [1] and 1.77 ± 0.12 under setting [2].
The like results for YVDVVFANRPDPNTPMEETVRAMT [KCNAB2] were, in that order, 2.66 ± 0.34 and 3.09 ± 0.7.
The like results for YYTTPIYRFRMKCHLCVNYIEMQT [YJU2B] were, in that order, 2.73 ± 0.43 and 2.51 ± 0.64.
